# From publication PMC8489136, “LncRNA MALAT1 was regulated by HPV16 E7 independently of pRB in cervical cancer cells”
# Biological target: HPV16 E7 (His-E7) (Human papillomavirus type 16, UniProt P03129 1-98)
# Test: EMSA; inhibited by excess unlabeled probe; EMSA buffer, salt, pH and temperature not given; UV crosslinking: 20 min incubation in binding buffer (composition not given), 254 nm 30 min on ice
# Conditions: protein: recombinant; tags: His; label: biotin; blunt
# Sequence of HPV16 E7 (His-E7) (P03129 whole entry): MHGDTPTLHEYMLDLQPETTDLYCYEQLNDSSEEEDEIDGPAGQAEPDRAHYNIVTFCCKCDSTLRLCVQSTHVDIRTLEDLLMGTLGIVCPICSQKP
row,Binder,binding result
1,"MALAT1 promoter probe2 (dsDNA, 5'-biotin) DNA 1: AGCTGCCACCCCGCCCCCATGCCAT DNA 2: ATGGCATGGGGGCGGGGTGGCAGCT",binds
2,"MALAT1 promoter probe1 (dsDNA, 5'-biotin) DNA 1: CAGGCGTTAGGGCGGGGCGCGCGTGC DNA 2: GCACGCGCGCCCCGCCCTAACGCCTG",binds
